Tests used:
[1] = molecular target: T1, alphaVbeta3 integrin (human, UniProt P06756 31-1048; P05106 27-788); test: saturation binding curve on αvβ3 coated plates
T1 construct: Purified integrin coated on plates; also called αvβ3; αVβ3

[2] = molecular target: T2, alphaV subunit integrins on human tumor cells (HT29, A549, A2780) (human, UniProt P06756 31-1048); test: flow cytometry on A549 human lung carcinoma cells, FITC anti-human antibody
T2 construct: whole, on cells; the cell line of each number is named under assay; also called alphaV integrins on living cells
Procedure: (§1) Cells: HT29 human colon carcinoma and A549 human lung carcinoma cells were from ATCC and maintained in alphaMEM supplemented with 10% fetal bovine serum (FBS). A2780 human ovarian carcinoma cells were obtained from National Cancer Institute. A2780 cells were cultured in RPMI 1640 medium containing 10% FBS. […] Absence of primary antibody or substitution of primary antibody with isotype matched antibody served as negative controls. Cells were immediately analyzed with a FACS Scan II flow cytometer (Becton Dickinson, Mountain View, Calif.). Data was analyzed with GraphPad Prism software using non-liner regression to determine the concentration at 50% maximal binding (Table 7).

[3] = molecular target: T2, alphaV subunit integrins on human tumor …; test: flow cytometry on HT29 human colon carcinoma cells, FITC anti-human antibody
Procedure: as §1

[4] = molecular target: T3, alphaVbeta5 integrin (UniProt P06756 31-1048; P18084 24-799); test: ELISA on alphaVbeta5 protein, absorbance against concentration
T3 construct: Purified integrin coated on plates; also called αvβ5; alphaVbetaS protein

[5] = molecular target: T2, alphaV subunit integrins on human tumor …; test: flow cytometry on A2780 human ovarian carcinoma cells, FITC anti-human antibody
Procedure: as §1

[6] = molecular target: T1, alphaVbeta3 integrin; test: ELISA on alphaVbeta3 protein, absorbance against concentration
[7] = molecular target: T1, alphaVbeta3 integrin; test: ELISA, purified antibody on alphaVbeta3
[8] = molecular target: T1, alphaVbeta3 integrin; test: saturation binding curve, 125-I CNTO 95 on αvβ3 coated plates
Procedure: (§2) A375S2 and M21 cells express both αvβ₃ and αᵥβ₅, HT-29 cells express αvβ5. For comparison, other Mabs capable of binding integrins were used. The Kd was calculated from a saturation binding curve in each case using multiple replicates of multiple lots of antibody.

[9] = molecular target: T3, alphaVbeta5 integrin; test: saturation binding curve, 125-I CNTO 95 on αvβ5 coated plates
Procedure: as §2

T3 sequence (P06756 31-1048, chain 1 of 2): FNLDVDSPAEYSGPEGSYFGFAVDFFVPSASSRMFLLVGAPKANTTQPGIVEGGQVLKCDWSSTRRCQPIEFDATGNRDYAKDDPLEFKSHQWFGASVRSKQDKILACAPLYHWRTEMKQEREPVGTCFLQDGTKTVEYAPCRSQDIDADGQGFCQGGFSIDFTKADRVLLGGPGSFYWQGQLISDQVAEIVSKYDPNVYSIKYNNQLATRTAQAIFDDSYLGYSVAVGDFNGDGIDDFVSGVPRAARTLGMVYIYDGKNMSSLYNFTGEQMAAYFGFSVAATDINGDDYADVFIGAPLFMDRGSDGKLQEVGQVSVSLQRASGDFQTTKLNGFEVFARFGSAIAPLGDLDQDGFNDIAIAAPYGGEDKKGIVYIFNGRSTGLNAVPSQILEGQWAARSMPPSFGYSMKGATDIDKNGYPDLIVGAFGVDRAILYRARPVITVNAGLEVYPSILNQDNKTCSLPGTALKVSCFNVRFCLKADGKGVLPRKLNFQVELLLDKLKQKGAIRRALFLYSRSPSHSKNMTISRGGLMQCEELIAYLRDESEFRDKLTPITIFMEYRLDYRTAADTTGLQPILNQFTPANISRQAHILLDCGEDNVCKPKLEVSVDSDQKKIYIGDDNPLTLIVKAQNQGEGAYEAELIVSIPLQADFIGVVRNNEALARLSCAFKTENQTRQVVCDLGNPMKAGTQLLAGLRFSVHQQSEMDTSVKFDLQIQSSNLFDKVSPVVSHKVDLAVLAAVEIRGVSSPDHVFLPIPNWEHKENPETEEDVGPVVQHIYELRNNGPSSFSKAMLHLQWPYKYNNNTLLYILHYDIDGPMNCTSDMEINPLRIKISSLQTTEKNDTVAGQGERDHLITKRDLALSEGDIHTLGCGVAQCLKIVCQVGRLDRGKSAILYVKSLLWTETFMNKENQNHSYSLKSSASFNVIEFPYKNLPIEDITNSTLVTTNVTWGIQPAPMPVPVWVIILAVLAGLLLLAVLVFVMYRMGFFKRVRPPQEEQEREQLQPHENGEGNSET
T3 sequence (P18084 24-799, chain 2 of 2): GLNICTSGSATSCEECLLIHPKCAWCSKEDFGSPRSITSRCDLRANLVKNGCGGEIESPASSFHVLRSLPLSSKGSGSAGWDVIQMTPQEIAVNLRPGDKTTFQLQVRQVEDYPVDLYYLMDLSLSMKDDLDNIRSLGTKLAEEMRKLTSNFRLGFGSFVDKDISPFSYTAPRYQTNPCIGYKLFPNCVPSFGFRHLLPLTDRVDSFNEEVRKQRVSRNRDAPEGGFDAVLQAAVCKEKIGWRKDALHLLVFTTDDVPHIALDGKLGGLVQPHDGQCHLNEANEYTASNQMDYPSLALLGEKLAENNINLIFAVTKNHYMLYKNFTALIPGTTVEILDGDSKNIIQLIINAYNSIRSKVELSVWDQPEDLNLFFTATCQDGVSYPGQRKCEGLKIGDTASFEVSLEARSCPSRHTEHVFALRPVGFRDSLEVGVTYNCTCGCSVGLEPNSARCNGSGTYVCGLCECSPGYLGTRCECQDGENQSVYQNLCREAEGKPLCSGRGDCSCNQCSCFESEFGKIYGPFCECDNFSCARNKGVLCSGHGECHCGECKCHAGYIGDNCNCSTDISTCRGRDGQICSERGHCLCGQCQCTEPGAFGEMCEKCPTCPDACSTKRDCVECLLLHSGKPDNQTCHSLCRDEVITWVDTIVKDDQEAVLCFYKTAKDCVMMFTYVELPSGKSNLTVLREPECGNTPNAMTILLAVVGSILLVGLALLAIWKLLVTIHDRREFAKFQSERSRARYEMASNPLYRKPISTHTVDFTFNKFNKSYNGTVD
T2 sequence (P06756 31-1048): as the sequence (P06756 31-1048, chain 1 of 2) above
T1 sequence (P06756 31-1048, chain 1 of 2): as above
T1 sequence (P05106 27-788, chain 2 of 2): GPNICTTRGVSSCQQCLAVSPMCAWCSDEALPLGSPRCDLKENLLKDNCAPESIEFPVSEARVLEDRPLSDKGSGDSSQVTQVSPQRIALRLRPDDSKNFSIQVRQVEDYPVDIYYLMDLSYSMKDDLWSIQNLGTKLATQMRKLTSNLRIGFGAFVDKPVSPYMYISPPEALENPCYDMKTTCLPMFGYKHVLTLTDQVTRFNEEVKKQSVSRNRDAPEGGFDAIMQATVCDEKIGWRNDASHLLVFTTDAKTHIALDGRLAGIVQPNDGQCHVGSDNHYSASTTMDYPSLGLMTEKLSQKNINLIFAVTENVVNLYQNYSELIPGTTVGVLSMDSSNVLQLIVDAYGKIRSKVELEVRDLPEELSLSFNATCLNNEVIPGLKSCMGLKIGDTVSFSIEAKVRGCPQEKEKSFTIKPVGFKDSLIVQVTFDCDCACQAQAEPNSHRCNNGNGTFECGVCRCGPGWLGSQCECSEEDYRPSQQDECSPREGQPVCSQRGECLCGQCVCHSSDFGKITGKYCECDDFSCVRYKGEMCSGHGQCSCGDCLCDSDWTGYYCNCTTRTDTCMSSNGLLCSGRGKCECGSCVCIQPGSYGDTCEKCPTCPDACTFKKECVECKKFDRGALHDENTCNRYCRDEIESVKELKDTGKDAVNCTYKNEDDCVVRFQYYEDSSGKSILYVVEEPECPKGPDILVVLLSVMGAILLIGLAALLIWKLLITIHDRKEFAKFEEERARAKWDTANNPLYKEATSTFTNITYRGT

| Binder | Kd [1] [nM] | EC50 [2] [µg/mL] | EC50 [3] [µg/mL] | Kd [4] [nM] | EC50 [5] [µg/mL] | Kd [6] [nM] | EC50 [7] [µg/mL] | Kd [8] [nM] | Kd [9] [nM] |
| --- | --- | --- | --- | --- | --- | --- | --- | --- | --- |
| abciximab (Fab, V domains shown) VH: EVQLQQSGTVLARPGASVKMSCEASGYTFTNYWMHWVKQRPGQGLEWIGAIYPGNSDTSYIQKFKGKAKLTAVTSTTSVYMELSSLTNEDSAVYYCTLYDGYYVFAYWGQGTLVTVSA VL: EIVLTQSPVTLSVTPGDSVSLSCRASRDISNNLHWFQQTSHESPRLLIKYASQSMSGIPSRFSGSGSGTDFTLSINSVETEDFGMYFCQQTNSWPYTFGGGTKLEIK | 0.25 | – | – | – | – | – | – | – | – |
| Monoclonal antibody CNTO 95 (antibody, IgG1, V domains shown, also called C371A; Mab CNTO 95) VH: QVQLVESGGGVVQPGRSRRLSCAASGFTFSRYTMHWVRQAPGKGLEWVAVISFDGSNKYYVDSVKGRFTISRDNSENTLYLQVNILRAEDTAVYYCAREARGSYAFDIWGQGTMVTVSS VL: EIVLTQSPATLSLSPGERATLSCRASQSVSSYLAWYQQKPGQAPRLLIYDASNRATGIPARFSGSGSGTDFTLTISSLEPEDFAVYYCQQRSNWPPFTFGPGTKVDIK | – | 180 | 140 | 0.03 | 170 | ~3 | 0.7 | 0.21 | 0.025 |
| CNTO 364 (CNTO 95-SPP-DM1) (antibody, human IgG1, V domains shown, maytansinoid DM1 linked through SPP (disulfide) to amino acid side chains, positions not given, Antibody-drug conjugate of CNTO 95 (human IgG1 kappa); also called CNTO 95-DM1; the conjugate) VH: QVQLVESGGGVVQPGRSRRLSCAASGFTFSRYTMHWVRQAPGKGLEWVAVISFDGSNKYYVDSVKGRFTISRDNSENTLYLQVNILRAEDTAVYYCAREARGSYAFDIWGQGTMVTVSS VL: EIVLTQSPATLSLSPGERATLSCRASQSVSSYLAWYQQKPGQAPRLLIYDASNRATGIPARFSGSGSGTDFTLTISSLEPEDFAVYYCQQRSNWPPFTFGPGTKVDIK | – | 270 | 190 | 0.035 | 270 | ~3 | – | – | – |

From patent US20060127407A1 (IMMUNOGEN, published 2006)
